Laboratory results published in US20240199740A1 (Ablynx, published 2024).

Columns and labels:
[1] = biological target: T1, human CD123 expressed on cells (human, UniProt P26951 19-378); test: cell-based or functional assay
[2] = biological target: T1, human CD123 expressed on cells; test: cell-based or functional assay; remark: listed apart in the source
[3] = biological target: T1, human CD123 expressed on cells; test: cell-based or functional assay; remark: listed apart in the source
[4] = biological target: T1, human CD123 expressed on cells; test: cell-based or functional assay; remark: listed apart in the source
[5] = biological target: human CD123 (human, UniProt P26951 19-378); test: cell-based or functional assay
[6] = biological target: T2, recombinant human CD123 protein (R&D Systems, 301-R3/CF) (human, UniProt P26951 19-305); test: SPR (ProteOn XPR36), CD123 immobilized; values only indicative (incomplete regeneration)
T2 construct: Bought recombinant His-tagged extracellular domain of human CD123; also called recombinant CD123; in house biotinylated-CD123 recombinant protein; not shown: His tag of the bought protein
T2 sequence: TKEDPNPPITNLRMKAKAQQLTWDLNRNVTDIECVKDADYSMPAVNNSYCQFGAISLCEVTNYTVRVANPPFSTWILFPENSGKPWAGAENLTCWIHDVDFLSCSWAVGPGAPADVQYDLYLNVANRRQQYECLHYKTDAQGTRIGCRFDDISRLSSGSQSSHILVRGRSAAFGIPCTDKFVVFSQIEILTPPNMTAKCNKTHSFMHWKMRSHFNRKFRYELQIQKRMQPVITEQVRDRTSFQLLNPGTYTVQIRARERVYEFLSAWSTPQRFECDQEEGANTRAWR

[7] = biological target: T2, recombinant human CD123 protein (R&D …); test: SPR (ProteOn XPR36), CD123 immobilized

B1: T017000135 (bispecific antibody)
chain: DVQLVESGGGLVQAGGPLRLSCAASGRTFSSYVMGWFRQAPGKEREFVAAIYWSNGKTQYTDSVKGRFTISGDNAKNTVYLQMNSLNPEDTAVYYCVADKDETGFRTLPIAYDYWGQGTLVTVSSGGGGSGGGGSGGGGSGGGGSGGGGSGGGGSGGGGSEVQLVESGGGLVQPGGSLRLSCVASGDVHKINFLGWYRQAPGKEREKVAHISIGDQTDYADSAKGRFTISRDESKNMVYLQMNSLKPEDTAVYFCRAFSRIYPYDYWGQGTLVTVSSGGGGSGGGGSGGGGSGGGGSGGGGSGGGGSGGGGSEVQLVESGGGLVQAGGSLRLSCAASGITSKINDMGWYRQTPGNYREWVASITATGTTNYRDSVKGRFTISRDNAKSTVYLQMNSLKPEDTTVYYCNTFPPISNFWGQGTLVTVSSA
In the case of B1, the “% lysis, redirected human T cell mediated killing of MOLM-13 cells, flow cytometry, E:T 10:1” value [1] is reported as 33%, the “EC50 (M), redirected human T cell mediated killing of MOLM-13 cells, flow cytometry, E:T 10:1” value [1] is reported as 1.1e-11 M and the “EC50 (M), IFN-γ secretion by human T cells during killing of CD123 transfected adherent target cells” value [2] is reported as 2e-09 M. The “EC50 (M), human IL-6 secretion during human T cell mediated killing of CD123 transfected adherent target cells” value [3] was 5.9e-10 M, the “% lysis, redirected human T cell mediated killing of KG1a cells, flow cytometry, E:T 10:1” value [4] was 18% and the “EC50 (M), redirected human T cell mediated killing of KG1a cells, flow cytometry, E:T 10:1” value [4] was 5.1e-11 M.

B2: T017000128 (bispecific antibody)
chain: DVQLVESGGGLVQPGGSLRLSCVASGDVHKINFLGWYRQAPGKEREKVAHISIGDQTDYADSAKGRFTISRDESKNMVYLQMNSLKPEDTAVYFCRAFSRIYPYDYWGQGTLVTVSSGGGGSGGGGSGGGGSGGGGSGGGGSGGGGSGGGGSEVQLVESGGGLVQAGGSLRLSCAASGITSKINDMGWYRQTPGNYREWVASITATGTTNYRDSVKGRFTISRDNAKSTVYLQMNSLKPEDTTVYYCNTFPPISNFWGQGTLVTVSSA
B2 was tested, and the “% lysis, redirected cynomolgus T cell mediated killing of KG1a cells, flow cytometry, E:T 10:1” value [5] was 32%, the “% lysis, redirected human T cell mediated killing of KG1a cells, flow cytometry, E:T 10:1” value [5] was 55% and the “EC50 (M), redirected cynomolgus T cell mediated killing of KG1a cells, flow cytometry, E:T 10:1” value [5] was 2.8e-10 M. The “EC50 (M), redirected human T cell mediated killing of KG1a cells, flow cytometry, E:T 10:1” value [5] was 3.1e-10 M.

B3: T017000120 (bispecific antibody)
chain: EVQLVESGGGSVQAGGSLRLSCAASGYTIGPYCMGWFRQAPGKEREGVAAINMGGGITYYADSVKGRFTISQDNAKNTVYLLMNSLEPEDTAIYYCAADSTIYASYYECGHGLSTGGYGYDSWGQGTLVTVSSGGGGSGGGGSGGGGSGGGGSGGGGSGGGGSGGGGSEVQLVESGGGLVQAGGPLRLSCAASGRTFSSYVMGWFRQAPGKEREFVAAIYWSNGKTQYTDSVKGRFTISGDNAKNTVYLQMNSLNPEDTAVYYCVADKDETGFRTLPIAYDYWGQGTLVTVSSGGGGSGGGGSGGGGSGGGGSGGGGSGGGGSGGGGSEVQLVESGGGLVQPGGSLRLSCVASGDVHKINFLGWYRQAPGKEREKVAHISIGDQTDYADSAKGRFTISRDESKNMVYLQMNSLKPEDTAVYFCRAFSRIYPYDYWGQGTLVTVSS
notes: Multispecific Nanobody polypeptide expressed in Pichia; also called cAbLys3(D1E,Q5V,A6E,Q108L)-35GS-A0110055F03-35GS-T0170056G05-FLAG3-HIS6; not shown: C-terminal FLAG3-HIS6 tag
Binder B3 has a Kd [6] of 170 nM, a koff [6] of 0.0025 s⁻¹ and a kon [6] of 15000 M⁻¹ s⁻¹.

B4: T017000113 (bispecific antibody)
chain: EVQLVESGGGLVQAGGPLRLSCAASGRTFSSYVMGWFRQAPGKEREFVAAIYWSNGKTQYTDSVKGRFTISGDNAKNTVYLQMNSLNPEDTAVYYCVADKDETGFRTLPIAYDYWGQGTLVTVSSGGGGSGGGGSGGGGSGGGGSGGGGSGGGGSGGGGSEVQLVESGGGSVQAGGSLRLSCAASGYTIGPYCMGWFRQAPGKEREGVAAINMGGGITYYADSVKGRFTISQDNAKNTVYLLMNSLEPEDTAIYYCAADSTIYASYYECGHGLSTGGYGYDSWGQGTLVTVSSGGGGSGGGGSGGGGSGGGGSGGGGSGGGGSGGGGSEVQLVESGGGLVQPGGSLRLSCVASGDVHKINFLGWYRQAPGKEREKVAHISIGDQTDYADSAKGRFTISRDESKNMVYLQMNSLKPEDTAVYFCRAFSRIYPYDYWGQGTLVTVSS
notes: Multispecific Nanobody polypeptide expressed in Pichia; also called A0110055F03-35GS-cAbLys3(D1E,Q5V,A6E,Q108L)-35GS-T0170056G05-FLAG3-HIS6; not shown: C-terminal FLAG3-HIS6 tag
Work on B4 yielded a Kd [7] of 160 nM, a koff [7] of 0.0032 s⁻¹ and a kon [7] of 20000 M⁻¹ s⁻¹.
